Our source for the fibrin plate assay, diameter of halo pattern (5.0 x 10^3 IU unmodified Sak, 310 K, 20 h) values is publication PMC5686944.

For this experiment, the target named is plasminogen (UniProt P00747).
UniProt P00747, sequence (P00747 20-810): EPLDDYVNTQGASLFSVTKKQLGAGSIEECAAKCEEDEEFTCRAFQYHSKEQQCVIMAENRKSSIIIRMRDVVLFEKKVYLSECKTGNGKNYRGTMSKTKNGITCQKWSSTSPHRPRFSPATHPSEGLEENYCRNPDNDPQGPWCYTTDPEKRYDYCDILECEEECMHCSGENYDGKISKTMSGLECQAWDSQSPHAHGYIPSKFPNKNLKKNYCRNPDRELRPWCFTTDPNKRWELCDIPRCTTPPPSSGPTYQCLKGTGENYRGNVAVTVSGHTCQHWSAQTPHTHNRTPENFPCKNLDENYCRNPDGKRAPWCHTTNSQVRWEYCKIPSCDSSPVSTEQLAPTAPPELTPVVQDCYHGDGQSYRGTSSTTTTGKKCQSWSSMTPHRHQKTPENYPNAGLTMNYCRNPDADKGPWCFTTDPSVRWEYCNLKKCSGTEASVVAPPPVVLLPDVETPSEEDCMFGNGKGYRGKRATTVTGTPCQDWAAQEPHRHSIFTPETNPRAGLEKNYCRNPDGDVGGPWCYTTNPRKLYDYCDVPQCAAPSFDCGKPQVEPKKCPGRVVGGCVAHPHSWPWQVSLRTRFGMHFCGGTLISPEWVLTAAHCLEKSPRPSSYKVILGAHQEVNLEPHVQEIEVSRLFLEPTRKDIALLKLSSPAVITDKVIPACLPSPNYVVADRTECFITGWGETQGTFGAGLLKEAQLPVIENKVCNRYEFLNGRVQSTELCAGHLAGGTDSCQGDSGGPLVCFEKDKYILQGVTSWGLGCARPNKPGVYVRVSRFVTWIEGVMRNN

“wild-type staphylokinase (Sak) (natural protein)” returned a fibrin plate assay, diameter of halo pattern (5.0 x 10^3 IU unmodified Sak, 310 K, 20 h) of 25.4 mm.
